Laboratory results published in patent US10919943B2, “Mutant proteins enabling agrochemical control of plant gene expression” (The Regents of the University of California, priority 2016, dated 2021).

B1: F159G: PYR1 mutant (protein, UniProt O49686 1-191, looked up, variant F159G)
Abscisic acid receptor PYR1: MPSELTPEERSELKNSIAEFHTYQLDPGSCSSLHAQRIHAPPELVWSIVRRFDKPQTYKHFIKSCSVEQNFEMRVGCTRDVIVISGLPANTSTERLDILDDERRVTGFSIIGGEHRLTNYKSVTTVHRFEKENRIWTVVLESYVVDMPEGNSEDDTRMGADTVVKLNLQKLATVAEAMARNSGDGSGSQVT
B2: F61S: PYR1 mutant (protein, UniProt O49686 1-191, looked up, variant F61S)
Abscisic acid receptor PYR1: MPSELTPEERSELKNSIAEFHTYQLDPGSCSSLHAQRIHAPPELVWSIVRRFDKPQTYKHSIKSCSVEQNFEMRVGCTRDVIVISGLPANTSTERLDILDDERRVTGFSIIGGEHRLTNYKSVTTVHRFEKENRIWTVVLESYVVDMPEGNSEDDTRMFADTVVKLNLQKLATVAEAMARNSGDGSGSQVT
B3: F159K: PYR1 mutant (protein, UniProt O49686 1-191, looked up, variant F159K)
Abscisic acid receptor PYR1: MPSELTPEERSELKNSIAEFHTYQLDPGSCSSLHAQRIHAPPELVWSIVRRFDKPQTYKHFIKSCSVEQNFEMRVGCTRDVIVISGLPANTSTERLDILDDERRVTGFSIIGGEHRLTNYKSVTTVHRFEKENRIWTVVLESYVVDMPEGNSEDDTRMKADTVVKLNLQKLATVAEAMARNSGDGSGSQVT
B4: T162E: PYR1 mutant (protein, UniProt O49686 1-191, looked up, variant T162E)
Abscisic acid receptor PYR1: MPSELTPEERSELKNSIAEFHTYQLDPGSCSSLHAQRIHAPPELVWSIVRRFDKPQTYKHFIKSCSVEQNFEMRVGCTRDVIVISGLPANTSTERLDILDDERRVTGFSIIGGEHRLTNYKSVTTVHRFEKENRIWTVVLESYVVDMPEGNSEDDTRMFADEVVKLNLQKLATVAEAMARNSGDGSGSQVT
B5: F61G: PYR1 mutant (protein, UniProt O49686 1-191, looked up, variant F61G)
Abscisic acid receptor PYR1: MPSELTPEERSELKNSIAEFHTYQLDPGSCSSLHAQRIHAPPELVWSIVRRFDKPQTYKHGIKSCSVEQNFEMRVGCTRDVIVISGLPANTSTERLDILDDERRVTGFSIIGGEHRLTNYKSVTTVHRFEKENRIWTVVLESYVVDMPEGNSEDDTRMFADTVVKLNLQKLATVAEAMARNSGDGSGSQVT
B6: F61R: PYR1 mutant (protein, UniProt O49686 1-191, looked up, variant F61R)
Abscisic acid receptor PYR1: MPSELTPEERSELKNSIAEFHTYQLDPGSCSSLHAQRIHAPPELVWSIVRRFDKPQTYKHRIKSCSVEQNFEMRVGCTRDVIVISGLPANTSTERLDILDDERRVTGFSIIGGEHRLTNYKSVTTVHRFEKENRIWTVVLESYVVDMPEGNSEDDTRMFADTVVKLNLQKLATVAEAMARNSGDGSGSQVT
B7: F61P: PYR1 mutant (protein, UniProt O49686 1-191, looked up, variant F61P)
Abscisic acid receptor PYR1: MPSELTPEERSELKNSIAEFHTYQLDPGSCSSLHAQRIHAPPELVWSIVRRFDKPQTYKHPIKSCSVEQNFEMRVGCTRDVIVISGLPANTSTERLDILDDERRVTGFSIIGGEHRLTNYKSVTTVHRFEKENRIWTVVLESYVVDMPEGNSEDDTRMFADTVVKLNLQKLATVAEAMARNSGDGSGSQVT
B8: F61E: PYR1 mutant (protein, UniProt O49686 1-191, looked up, variant F61E)
Abscisic acid receptor PYR1: MPSELTPEERSELKNSIAEFHTYQLDPGSCSSLHAQRIHAPPELVWSIVRRFDKPQTYKHEIKSCSVEQNFEMRVGCTRDVIVISGLPANTSTERLDILDDERRVTGFSIIGGEHRLTNYKSVTTVHRFEKENRIWTVVLESYVVDMPEGNSEDDTRMFADTVVKLNLQKLATVAEAMARNSGDGSGSQVT
B9: F61N: PYR1 mutant (protein, UniProt O49686 1-191, looked up, variant F61N)
Abscisic acid receptor PYR1: MPSELTPEERSELKNSIAEFHTYQLDPGSCSSLHAQRIHAPPELVWSIVRRFDKPQTYKHNIKSCSVEQNFEMRVGCTRDVIVISGLPANTSTERLDILDDERRVTGFSIIGGEHRLTNYKSVTTVHRFEKENRIWTVVLESYVVDMPEGNSEDDTRMFADTVVKLNLQKLATVAEAMARNSGDGSGSQVT
B10: F61D: PYR1 mutant (protein, UniProt O49686 1-191, looked up, variant F61D)
Abscisic acid receptor PYR1: MPSELTPEERSELKNSIAEFHTYQLDPGSCSSLHAQRIHAPPELVWSIVRRFDKPQTYKHDIKSCSVEQNFEMRVGCTRDVIVISGLPANTSTERLDILDDERRVTGFSIIGGEHRLTNYKSVTTVHRFEKENRIWTVVLESYVVDMPEGNSEDDTRMFADTVVKLNLQKLATVAEAMARNSGDGSGSQVT
B11: T162F: PYR1 mutant (protein, UniProt O49686 1-191, looked up, variant T162F)
Abscisic acid receptor PYR1: MPSELTPEERSELKNSIAEFHTYQLDPGSCSSLHAQRIHAPPELVWSIVRRFDKPQTYKHFIKSCSVEQNFEMRVGCTRDVIVISGLPANTSTERLDILDDERRVTGFSIIGGEHRLTNYKSVTTVHRFEKENRIWTVVLESYVVDMPEGNSEDDTRMFADFVVKLNLQKLATVAEAMARNSGDGSGSQVT
B12: K170P: PYR1 mutant (protein, UniProt O49686 1-191, looked up, variant K170P)
Abscisic acid receptor PYR1: MPSELTPEERSELKNSIAEFHTYQLDPGSCSSLHAQRIHAPPELVWSIVRRFDKPQTYKHFIKSCSVEQNFEMRVGCTRDVIVISGLPANTSTERLDILDDERRVTGFSIIGGEHRLTNYKSVTTVHRFEKENRIWTVVLESYVVDMPEGNSEDDTRMFADTVVKLNLQPLATVAEAMARNSGDGSGSQVT
B13: F159H: PYR1 mutant (protein, UniProt O49686 1-191, looked up, variant F159H)
Abscisic acid receptor PYR1: MPSELTPEERSELKNSIAEFHTYQLDPGSCSSLHAQRIHAPPELVWSIVRRFDKPQTYKHFIKSCSVEQNFEMRVGCTRDVIVISGLPANTSTERLDILDDERRVTGFSIIGGEHRLTNYKSVTTVHRFEKENRIWTVVLESYVVDMPEGNSEDDTRMHADTVVKLNLQKLATVAEAMARNSGDGSGSQVT
B14: F61Q: PYR1 mutant (protein, UniProt O49686 1-191, looked up, variant F61Q)
Abscisic acid receptor PYR1: MPSELTPEERSELKNSIAEFHTYQLDPGSCSSLHAQRIHAPPELVWSIVRRFDKPQTYKHQIKSCSVEQNFEMRVGCTRDVIVISGLPANTSTERLDILDDERRVTGFSIIGGEHRLTNYKSVTTVHRFEKENRIWTVVLESYVVDMPEGNSEDDTRMFADTVVKLNLQKLATVAEAMARNSGDGSGSQVT
B15: T162P: PYR1 mutant (protein, UniProt O49686 1-191, looked up, variant T162P)
Abscisic acid receptor PYR1: MPSELTPEERSELKNSIAEFHTYQLDPGSCSSLHAQRIHAPPELVWSIVRRFDKPQTYKHFIKSCSVEQNFEMRVGCTRDVIVISGLPANTSTERLDILDDERRVTGFSIIGGEHRLTNYKSVTTVHRFEKENRIWTVVLESYVVDMPEGNSEDDTRMFADPVVKLNLQKLATVAEAMARNSGDGSGSQVT

System: HAB1
Assay: Yeast two hybrid of pBD-PYR1 site saturation mutants with pACT-HAB1 on 10 μM ABA, β-galactosidase staining
Type: cell-based, Arabidopsis
Design: key: x: Mutations in PYR1 that disrupt ABA-induced binding to PYR1 to HAB1
Settings: S. cerevisiae Y190, 10 μM ABA; dead = lack of visible staining in comparison to wild type control
How it was run: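 Binding was read by β-galactosidase staining of chloroform-lysed colonies after 2 days at 30° C on SD (-Leu, -Trp) plates containing 10 μM (+)-ABA. Yeast strain Y190 carried the BD-PYR1 single-substitution mutants plus the AD-HAB1 fusion. Absence of staining versus the wild-type control defined "dead" mutants.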

| Molecule | Mutations in PYR1 that disrupt ABA-induced binding to PYR1 to HAB1 |
| --- | --- |
| B1 | x |
| B2 | x |
| B3 | x |
| B4 | x |
| B5 | x |
| B6 | x |
| B7 | x |
| B8 | x |
| B9 | x |
| B10 | x |
| B11 | x |
| B12 | x |
| B13 | x |
| B14 | x |
| B15 | x |
